According to patent publication US20240100176A1 (Eli Lilly, published 2024):
Values belong to the binder of their own block, whether it stands above or below them.

Assays:
[1] = biological target: T1, hexahistidine tagged human IL-4Rα ECD H197G (human, UniProt P24394 26-232); assay: capture ELISA: Ab1 on anti-human IgG Fc, His-tagged receptor at 1 µg/mL, anti-His HRP
T1 construct: not shown: hexahistidine tag
Description: (§1) Example 2d. […] Briefly, thirty surface amino acid residue substitutions were introduced individually into hexahistidine tagged human IL-4Rα extra cellular domain (ECD) as follows: K2D, E6R, K22D, P26R, T31R, F41A, L42G, L43G, E45R, E52R, G56R, D66R, A71R, Q82G, K87D, E94R, H107A, D108R, P124R, D125R, D143R, R148D, L155R, R160D, S164R, S168R, Q181R, P192R, K195D, or H197G. Each mutant protein having a single amino acid residue substitution as described above was transiently expressed in CHO cells and purified using standard immobilized metal affinity chromatography techniques. […] The plates were then washed 3 times with PBST and the exemplified human IL-4Rα antibody was added to the wells at a final concentration of 1 μg/mL in PBS-casein and incubated for 1 hour at room temperature. The plates were washed 3 times with PBST, the IL-4Rα mutant proteins were serially diluted 5-fold from 1 μg/mL for 3 points. in PBS-casein and added to the plate at 50 μL/well and incubated for 1 hour at room temperature. The plates were washed 3 times with PBST and a 1000-fold dilution of anti-histidine tag antibody HRP conjugate (R&D Systems, Cat. #MAB050H) in PBS-casein was added and incubated for 45 minutes at room temperature. The plates were washed 3 times, TMB substrate (Pierce, Cat. #34028) was added per manufacturer instructions, the reaction was quenched with H₂SO₄, and absorbance was read at 450 nm on an ELISA plate reader.

[2] = biological target: T2, hexahistidine tagged human IL-4Rα ECD K195D (human, UniProt P24394 26-232); assay: as above
T2 construct: not shown: hexahistidine tag
Description: as §1

[3] = biological target: T3, hexahistidine tagged human IL-4Rα ECD P124R (human, UniProt P24394 26-232); assay: as above
T3 construct: not shown: hexahistidine tag
Description: as §1

[4] = biological target: T4, hexahistidine tagged human IL-4Rα ECD E52R (human, UniProt P24394 26-232); assay: as above
T4 construct: not shown: hexahistidine tag
T4 sequence (P24394 26-232 E77R): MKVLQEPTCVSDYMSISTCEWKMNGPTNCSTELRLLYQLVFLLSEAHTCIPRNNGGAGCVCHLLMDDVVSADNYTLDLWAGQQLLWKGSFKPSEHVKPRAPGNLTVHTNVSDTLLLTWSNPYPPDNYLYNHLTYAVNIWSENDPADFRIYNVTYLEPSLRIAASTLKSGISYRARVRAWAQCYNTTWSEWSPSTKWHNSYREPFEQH
Description: as §1

[5] = biological target: T5, hexahistidine tagged human IL-4Rα ECD F41A (human, UniProt P24394 26-232); assay: capture ELISA: Ab1 on anti-human IgG Fc, His-tagged receptor at 0.04 µg/mL, anti-His HRP
T5 construct: not shown: hexahistidine tag
T5 sequence (P24394 26-232 F66A): as the sequence (P24394 26-232 E77R) above, with F41A, R52E counted along it
Description: as §1

[6] = biological target: T6, hexahistidine tagged human IL-4Rα ECD K2D (human, UniProt P24394 26-232); assay: as above
T6 construct: not shown: hexahistidine tag
T6 sequence (P24394 other isoform, or with tags, fused parts or gaps): as the sequence (P24394 26-232 E77R) above, with K2D, R52E counted along it
Description: as §1

[7] = biological target: T3, hexahistidine tagged human IL-4Rα ECD …; assay: as above
Description: as §1

[8] = biological target: T7, hexahistidine tagged human IL-4Rα ECD A71R (human, UniProt P24394 26-232); assay: as above
T7 construct: not shown: hexahistidine tag
T7 sequence (P24394 26-232 A96R): as the sequence (P24394 26-232 E77R) above, with R52E, A71R counted along it
Description: as §1

[9] = biological target: T8, hexahistidine tagged human IL-4Rα ECD T31R (human, UniProt P24394 26-232); assay: as above
T8 construct: not shown: hexahistidine tag
T8 sequence (P24394 26-232 T56R): as the sequence (P24394 26-232 E77R) above, with T31R, R52E counted along it
Description: as §1

[10] = biological target: T9, hexahistidine tagged human IL-4Rα ECD K87D (human, UniProt P24394 26-232); assay: as above
T9 construct: not shown: hexahistidine tag
T9 sequence (P24394 26-232 K112D): as the sequence (P24394 26-232 E77R) above, with R52E, K87D counted along it
Description: as §1

[11] = biological target: T10, hexahistidine tagged human IL-4Rα ECD R160D (human, UniProt P24394 26-232); assay: as above
T10 construct: not shown: hexahistidine tag
T10 sequence (P24394 26-232 R185D): as the sequence (P24394 26-232 E77R) above, with R52E, R160D counted along it
Description: as §1

[12] = biological target: T11, hexahistidine tagged human IL-4Rα ECD P192R (human, UniProt P24394 26-232); assay: as above
T11 construct: not shown: hexahistidine tag
T11 sequence (P24394 26-232 P217R): as the sequence (P24394 26-232 E77R) above, with R52E, P192R counted along it
Description: as §1

[13] = biological target: T12, human IL-4Rα on cells (human PBMC B cells and CD4+ T cells, Daudi cells, HEK-Blue IL-4/IL-13 cells, myeloid … (human, UniProt P24394 26-825)); assay: cell-based or functional assay
T12 sequence: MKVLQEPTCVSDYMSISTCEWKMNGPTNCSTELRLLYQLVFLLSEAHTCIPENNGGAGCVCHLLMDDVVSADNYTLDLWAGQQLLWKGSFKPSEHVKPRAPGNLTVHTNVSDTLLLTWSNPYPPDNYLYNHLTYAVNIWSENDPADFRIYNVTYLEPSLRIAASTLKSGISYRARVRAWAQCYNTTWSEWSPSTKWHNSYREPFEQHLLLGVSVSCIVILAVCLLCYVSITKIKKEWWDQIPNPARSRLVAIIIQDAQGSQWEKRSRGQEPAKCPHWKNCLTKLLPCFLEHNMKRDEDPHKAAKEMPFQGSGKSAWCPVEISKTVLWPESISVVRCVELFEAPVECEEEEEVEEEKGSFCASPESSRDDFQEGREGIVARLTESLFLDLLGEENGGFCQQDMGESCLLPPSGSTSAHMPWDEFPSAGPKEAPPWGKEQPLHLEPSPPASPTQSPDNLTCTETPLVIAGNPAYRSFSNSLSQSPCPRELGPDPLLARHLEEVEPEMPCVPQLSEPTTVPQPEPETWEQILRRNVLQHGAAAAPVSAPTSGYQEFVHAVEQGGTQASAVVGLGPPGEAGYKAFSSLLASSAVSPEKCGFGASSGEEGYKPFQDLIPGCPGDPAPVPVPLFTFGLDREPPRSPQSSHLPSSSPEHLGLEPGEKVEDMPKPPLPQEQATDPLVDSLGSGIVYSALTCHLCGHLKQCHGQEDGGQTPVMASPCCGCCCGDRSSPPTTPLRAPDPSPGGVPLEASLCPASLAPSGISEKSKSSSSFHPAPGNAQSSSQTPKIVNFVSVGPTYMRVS

ELISA (OD450) [1]: 1.85 OD450 | ELISA (OD450) [2]: 1.91 OD450 | ELISA (OD450) [3]: 1.84 OD450 | ELISA (OD450) [4]: 1.73 OD450 | ELISA (OD450) [5]: 1.15 OD450 | ELISA (OD450) [6]: 1.09 OD450 | ELISA (OD450) [7]: 1.16 OD450 | ELISA (OD450) [8]: 0.907 OD450 | ELISA (OD450) [9]: 0.994 OD450 | ELISA (OD450) [10]: 0.911 OD450 | ELISA (OD450) [11]: 1.2 OD450 | ELISA (OD450) [12]: 1.22 OD450
B1: anti-human IL-4Rα antibody Ab1 (antibody, human IgG4 S228P, kappa)
heavy: QVQLVESGGGLVQPGGSLRLSCVASGFTFSHSSMNWVRQAPGKGLEWVSYISRATGAVYYADSVKGRFTISRDNAKNSLYLQMNSLRDEDTAVYYCAREPVFDYWGQGTLVTVSSASTKGPCVFPLAPCSRSTSESTAALGCLVKDYFPEPVTVSWNSGALTSGVHTFPAVLQSSGLYSLSSVVTVPSSSLGTKTYTCNVDHKPSNTKVDKRVESKYGPPCPPCPAPEFLGGPSVFLFPPKPKDTLMISRTPEVTCVVVDVSQEDPEVKFNWYVDGVEVHNAKTKPREEQFNSTYRVVSVLTVLHQDWLNGKEYKCKVSNKGLPSSIEKTISKAKGQPREPQVYTLPPSREEMTKNQVSLTCLVKGFYPSDICVEWESNGQPENNYKTTPPVLDSDGSFFLYSRLTVDKSRWQQGNVFSCSVMHEALHNHYTQKSLSLSLG
light: DIQMTQSPSAMSASVGDRVTITCRASQDISNYLAWFQQKPGKVPTRLIYAASSLQSGVPSRFSGSGSGTEFTLTISSLQPEDFATYYCLQWSSYPRTFGQGTKVEIKRTVAAPSVFIFPPSDEQLKSGTASVVCLLNNFYPREAKVQWKVDNALQSGNSQESVTEQDSKDSTYSLSSTLTLSKADYEKHKVYACEVTHQGLSSPVTKSFNRGEC
notes: human kappa light chain; also called anti-human IL-4Rα Ab1; unconjugated Ab1

Inhibition of IL-4 induced B cell proliferation, IC50 [13]: 1.41 nM
B2: anti-human IL-4Rα Ab1 GC conjugate of Example 1b (n=4) (antibody, human IgG4 S228P, kappa)
heavy: B1 heavy
light: B1 light
modifications: glucocorticoid receptor agonist payload-linker (GC-L, Preparation 8) conjugated to the engineered cysteines at the 124 and 378 position of the heavy chain (EU numbering); n is 4 (average DAR 4.17 by RP-HPLC, 3.85 by TOF MS)
